Data as given in PMC11645210.

Biological target: Shaanxi2011 RBD (bat sarbecovirus Shaanxi2011)
Assay: SPR

**Q.** VIR-7229 Fab fragment was tested. Which Kd did it give?
**A.** The Kd was 185 nM.

**Q.** What about the koff of the same substance?
**A.** Its koff is 0.00985 s⁻¹.

**Q.** And the kon?
**A.** The kon was 53500 M⁻¹ s⁻¹.
